From PMC11992174, “Structural Insights into Bortezomib-Induced Activation of the Caseinolytic Chaperone-Protease System in Mycobacterium tuberculosis” (Nature Communications, 2025)

Target: the molecule itself
Assay: cryo-EM structure

B1: MtbClpX^E187Q (enzyme)
chain: not shown
notes: also called Walker B motif mutant MtbClpX
  stoichiometry N: 6
